Assay results as given in FireProtDB (doi:10.1021/bi00252a018).

B1: Subtilisin inhibitor, P01006 (parent)
chain: MRNTGAGPSPSVSRPPPSAAPLSGAALAAPGDAPSALYAPSALVLTVGKGVSATTAAPERAVTLTCAPGPSGTHPAAGSACADLAAVGGDLNALTRGEDVMCPMVYDPVLLTVDGVWQGKRVSYERVFSNECEMNAHGSSVFAF

Variants of: B1
Conditions: Streptomyces albogriseolus; pH 2.3; Thermal; DSC; glycine 25 mM; reversible: yes (70-85%); structure 3SSI; whole UniProt chain shown

Row | Variant | Tm
1 | MRNTGAGPSPSVSRPPPSAAPLSGAALAAPGDAPSALYAPSALVLTVGKGVSATTAAPERAVTLTCAPGPSGTHPAAGSACADLAAVGGDLNALTRGEDVMCPMVYDPVLLTVCGVWQGKRVSYERVFSNECEMNAHGSSVFAF | 48 °C

Same assay, conditions: Streptomyces albogriseolus; pH 2.4; Thermal; DSC; glycine 25 mM; reversible: yes (70-85%); structure 3SSI; whole UniProt chain shown

Row | Variant | Tm
2 | MRNTGAGPSPSVSRPPPSAAPLSGAALAAPGDAPSALYAPSALVLTVGKGVSATTAAPERAVTLTCAPGPSGTHPAAGSACADLAAVGGDLNALTRGEDVMCPMVYDPVLLTVCGVWQGKRVSYERVFSNECEMNAHGSSVFAF | 50 °C

Same assay, conditions: Streptomyces albogriseolus; pH 2.5; Thermal; DSC; glycine 25 mM; reversible: yes (70-85%); structure 3SSI; whole UniProt chain shown

Row | Variant | Tm
3 | MRNTGAGPSPSVSRPPPSAAPLSGAALAAPGDAPSALYAPSALVLTVGKGVSATTAAPERAVTLTCAPGPSGTHPAAGSACADLAAVGGDLNALTRGEDVMCPMVYDPVLLTVCGVWQGKRVSYERVFSNECEMNAHGSSVFAF | 52.5 °C

Same assay, conditions: Streptomyces albogriseolus; pH 2.56; Thermal; DSC; glycine 25 mM; reversible: yes (70-85%); structure 3SSI; whole UniProt chain shown

Row | Variant | Tm
4 | MRNTGAGPSPSVSRPPPSAAPLSGAALAAPGDAPSALYAPSALVLTVGKGVSATTAAPERAVTLTCAPGPSGTHPAAGSACADLAAVGGDLNALTRGEDVMCPMVYDPVLLTVCGVWQGKRVSYERVFSNECEMNAHGSSVFAF | 53.2 °C

Same assay, conditions: Streptomyces albogriseolus; pH 2.59; Thermal; DSC; glycine 25 mM; reversible: yes (70-85%); structure 3SSI; whole UniProt chain shown

Row | Variant | Tm
5 | MRNTGAGPSPSVSRPPPSAAPLSGAALAAPGDAPSALYAPSALVLTVGKGVSATTAAPERAVTLTCAPGPSGTHPAAGSACADLAAVGGDLNALTRGEDVMCPMVYDPVLLTVCGVWQGKRVSYERVFSNECEMNAHGSSVFAF | 54.2 °C

Same assay, conditions: Streptomyces albogriseolus; pH 2.68; Thermal; DSC; glycine 25 mM; reversible: yes (70-85%); structure 3SSI; whole UniProt chain shown

Row | Variant | Tm
6 | MRNTGAGPSPSVSRPPPSAAPLSGAALAAPGDAPSALYAPSALVLTVGKGVSATTAAPERAVTLTCAPGPSGTHPAAGSACADLAAVGGDLNALTRGEDVMCPMVYDPVLLTVCGVWQGKRVSYERVFSNECEMNAHGSSVFAF | 56.2 °C

Same assay, conditions: Streptomyces albogriseolus; pH 2.8; Thermal; DSC; glycine 25 mM; reversible: yes (70-85%); structure 3SSI; whole UniProt chain shown

Row | Variant | Tm
7 | MRNTGAGPSPSVSRPPPSAAPLSGAALAAPGDAPSALYAPSALVLTVGKGVSATTAAPERAVTLTCAPGPSGTHPAAGSACADLAAVGGDLNALTRGEDVMCPMVYDPVLLTVCGVWQGKRVSYERVFSNECEMNAHGSSVFAF | 58.8 °C

Same assay, conditions: Streptomyces albogriseolus; pH 2.88; Thermal; DSC; glycine 25 mM; reversible: yes (70-85%); structure 3SSI; whole UniProt chain shown

Row | Variant | Tm
8 | MRNTGAGPSPSVSRPPPSAAPLSGAALAAPGDAPSALYAPSALVLTVGKGVSATTAAPERAVTLTCAPGPSGTHPAAGSACADLAAVGGDLNALTRGEDVMCPMVYDPVLLTVCGVWQGKRVSYERVFSNECEMNAHGSSVFAF | 59.9 °C

Same assay, conditions: Streptomyces albogriseolus; pH 2.89; Thermal; DSC; glycine 25 mM; reversible: yes (70-85%); structure 3SSI; whole UniProt chain shown

Row | Variant | Tm
9 | MRNTGAGPSPSVSRPPPSAAPLSGAALAAPGDAPSALYAPSALVLTVGKGVSATTAAPERAVTLTCAPGPSGTHPAAGSACADLAAVGGDLNALTRGEDVMCPMVYDPVLLTVCGVWQGKRVSYERVFSNECEMNAHGSSVFAF | 60.5 °C

Same assay, conditions: Streptomyces albogriseolus; pH 2.94; Thermal; DSC; glycine 25 mM; reversible: yes (70-85%); structure 3SSI; whole UniProt chain shown

Row | Variant | Tm | change of melting temperature, mutant - wild type (higher = more stable)
10 | MRNTGAGPSPSVSRPPPSAAPLSGAALAAPGDAPSALYAPSALVLTVGKGVSATTAAPERAVTLTCAPGPSGTHPAAGSACADLAAVGGDLNALTRGEDVMCPMVYDPVLLTVCGVWQGKRVSYERVFSNECEMNAHGSSVFAF | 61.2 °C | 17.2 °C

Same assay, conditions: Streptomyces albogriseolus; pH 3.04; Thermal; DSC; glycine 25 mM; reversible: yes (70-85%); structure 3SSI; whole UniProt chain shown

Row | Variant | Tm | change of melting temperature, mutant - wild type (higher = more stable)
11 | MRNTGAGPSPSVSRPPPSAAPLSGAALAAPGDAPSALYAPSALVLTVGKGVSATTAAPERAVTLTCAPGPSGTHPAAGSACADLAAVGGDLNALTRGEDVMCPMVYDPVLLTVCGVWQGKRVSYERVFSNECEMNAHGSSVFAF | 63.2 °C | 15.6 °C

Same assay, conditions: Streptomyces albogriseolus; pH 3.07; Thermal; DSC; glycine 25 mM; reversible: yes (70-85%); structure 3SSI; whole UniProt chain shown

Row | Variant | Tm | change of melting temperature, mutant - wild type (higher = more stable)
12 | MRNTGAGPSPSVSRPPPSAAPLSGAALAAPGDAPSALYAPSALVLTVGKGVSATTAAPERAVTLTCAPGPSGTHPAAGSACADLAAVGGDLNALTRGEDVMCPMVYDPVLLTVCGVWQGKRVSYERVFSNECEMNAHGSSVFAF | 64.5 °C | 15.7 °C

Same assay, conditions: Streptomyces albogriseolus; pH 3.16; Thermal; DSC; glycine 25 mM; reversible: yes (70-85%); structure 3SSI; whole UniProt chain shown

Row | Variant | Tm | change of melting temperature, mutant - wild type (higher = more stable)
13 | MRNTGAGPSPSVSRPPPSAAPLSGAALAAPGDAPSALYAPSALVLTVGKGVSATTAAPERAVTLTCAPGPSGTHPAAGSACADLAAVGGDLNALTRGEDVMCPMVYDPVLLTVCGVWQGKRVSYERVFSNECEMNAHGSSVFAF | 66.5 °C | 14.3 °C

Same assay, conditions: Streptomyces albogriseolus; pH 3.25; Thermal; DSC; glycine 25 mM; reversible: yes (70-85%); structure 3SSI; whole UniProt chain shown

Row | Variant | Tm | change of melting temperature, mutant - wild type (higher = more stable)
14 | MRNTGAGPSPSVSRPPPSAAPLSGAALAAPGDAPSALYAPSALVLTVGKGVSATTAAPERAVTLTCAPGPSGTHPAAGSACADLAAVGGDLNALTRGEDVMCPMVYDPVLLTVCGVWQGKRVSYERVFSNECEMNAHGSSVFAF | 68.8 °C | 13.1 °C

Same assay, conditions: Streptomyces albogriseolus; pH 7; Thermal; DSC; phosphate 25 mM; reversible: yes (70-85%); structure 3SSI; whole UniProt chain shown

Row | Variant | Tm | change of melting temperature, mutant - wild type (higher = more stable)
15 | MRNTGAGPSPSVSRPPPSAAPLSGAALAAPGDAPSALYAPSALVLTVGKGVSATTAAPERAVTLTCAPGPSGTHPAAGSACADLAAVGGDLNALTRGEDVMCPMVYDPVLLTVCGVWQGKRVSYERVFSNECEMNAHGSSVFAF | 95.3 °C | 13.3 °C

Same assay, conditions: Streptomyces albogriseolus; pH 9.5; Thermal; DSC; glycine 25 mM; reversible: yes (70-85%); structure 3SSI; whole UniProt chain shown

Row | Variant | Tm | change of melting temperature, mutant - wild type (higher = more stable)
16 | MRNTGAGPSPSVSRPPPSAAPLSGAALAAPGDAPSALYAPSALVLTVGKGVSATTAAPERAVTLTCAPGPSGTHPAAGSACADLAAVGGDLNALTRGEDVMCPMVYDPVLLTVCGVWQGKRVSYERVFSNECEMNAHGSSVFAF | 95 °C | 14.3 °C

Same assay, conditions: Streptomyces albogriseolus; pH 9.75; Thermal; DSC; glycine 25 mM; reversible: yes (70-85%); structure 3SSI; whole UniProt chain shown

Row | Variant | Tm | change of melting temperature, mutant - wild type (higher = more stable)
17 | MRNTGAGPSPSVSRPPPSAAPLSGAALAAPGDAPSALYAPSALVLTVGKGVSATTAAPERAVTLTCAPGPSGTHPAAGSACADLAAVGGDLNALTRGEDVMCPMVYDPVLLTVCGVWQGKRVSYERVFSNECEMNAHGSSVFAF | 94.8 °C | 14.6 °C
